Where a chain is given by its changes, count along the chain named. Where two headings read alike, the source gives them in different places.
B1: α-SNAP-25 mouse monoclonal antibody 1D3B8 (antibody, V domains shown)
VH: QVKLQESGAELVKPGASVKISCKASGYIFTDHALHWVRQKPEQGLEWIGYIFPGNGNIEYNEKFKGKATLTADKSSSTAYMQLNSLTSGDSAMYFCKKMDYWGQGTTVTVSS
VL: DVLMTQTPLSLPVSLGDQASISCRSSQSIVHSNGNTYLEWYLQKPGQSPKLLIYKVSNRFSGVPDRFSGSGSGTDFTLKISRVEAEDLGVYYCFQGSHVPPTFGAGTKLELKR
B2: α-SNAP-25 mouse monoclonal antibody 2C9B10 (antibody, V domains shown)
VH: B1 VH with I28T, A33S, L34I, R38K, E42G, I51L, I58F, Q82H, G89E, M93V
VL: DIQMTQSPASLSASVGETVTITCRTTENIYSYFVWSQQRQGKSPQLRVYNAKSLAEGVPSSFNVSVSGTQFSLKINSLQPEDFGTYHCQHHYGTPYTFGGGTRLEIRR
B3: α-SNAP-25 mouse monoclonal antibody 2E2A6 (antibody, V domains shown)
VH: QVQLQQSDAELVKPGASVKISCRASGYTFTDHSIHWVKQQPGQGLEWIGYIFPGNGNIEYNDKFKGKATLTADKSSGTAYMQLNSLTSEDSAVYFCKRMGYWGQGTSVTVSS
VL: DVLMTQTPLTLSVTIGQPASISCKSSQSLLYTNGKTYLTWLFQRPGQSPKRLIYLVSELDSGVPDRFSGSGSGTDFTLEITRVEAEDLGVYYCLQSAHFPFTFGSGTKLEIKR
B4: α-SNAP-25 mouse monoclonal antibody 3C1A5 (antibody, V domains shown)
VH: QVKLQESGAELVKPGASVKISCKASGYTFTDHSIHWVKQKPGQGLEWIGYLFPGNGNFEYNEKFKGKATLTADKSSSTVYMYLNSLTSEDSAVYFCKRMGYWGQGTTVTVSS
VL: B3 VL with L3V, Y31N, F42I, K50Q, E58K, E79K, T81S, A97S

Legend:
[1] = molecular target: T1, SNAP-25 peptide comprising amino acids 134-197 of SEQ ID NO:5 (human); assay: SPR (BIAcore 3000), peptide on CM5 chip, 1:1 fit
[2] = molecular target: T1, SNAP-25 peptide comprising amino acids …

| Binder | Kd [1] | koff [1] | kon [1] | Kd [2] | koff [2] | kon [2] |
| --- | --- | --- | --- | --- | --- | --- |
| B1 | 0.05 nM | 5.78e-05 s⁻¹ | 1.06e+06 M⁻¹ s⁻¹ | – | – | – |
| B2 | 27.1 nM | 0.000311 s⁻¹ | 11500 M⁻¹ s⁻¹ | – | – | – |
| B3 | 0.09 nM | 0.000153 s⁻¹ | 1.7e+06 M⁻¹ s⁻¹ | 0.405 nM | 6.74e-05 s⁻¹ | 166000 M⁻¹ s⁻¹ |
| B4 | 1.33 nM | 0.000288 s⁻¹ | 217000 M⁻¹ s⁻¹ | – | – | – |

From US20170248602A1
